Data published in patent US20210393689A1 (JUNO THERAPEUTICS, published 2021).

Molecular target: T1, murine GPRC5D (murine, UniProt Q9JIL6 1-344)
T1 construct: whole, on cells; also called mGPRC5D; mouse GPRC5D
T1 sequence (looked up): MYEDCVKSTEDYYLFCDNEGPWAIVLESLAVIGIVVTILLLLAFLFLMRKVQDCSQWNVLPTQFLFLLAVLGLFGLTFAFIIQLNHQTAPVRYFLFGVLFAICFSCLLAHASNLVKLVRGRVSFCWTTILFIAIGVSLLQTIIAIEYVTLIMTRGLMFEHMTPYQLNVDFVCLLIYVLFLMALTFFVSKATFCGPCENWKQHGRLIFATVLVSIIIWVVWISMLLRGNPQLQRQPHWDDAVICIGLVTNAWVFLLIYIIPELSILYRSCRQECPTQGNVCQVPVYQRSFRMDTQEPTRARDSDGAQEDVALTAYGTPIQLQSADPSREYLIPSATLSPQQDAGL
Experiment: Jurkat Nur77-RFP reporter activation after 1:1 co-culture with K562 cells expressing mGPRC5D (indirect read-out)
Procedure: K562 cells were transduced to express human (hGPRC5D), cGPRC5D or mGPRC5D. The Jurkat Nur77-RFP activation reporter line described above was transduced with polynucleotides constructs encoding CARs described in Example 3. […] Reporter cells were also incubated with parental K562 cells as a negative control.

B1: GPRC5D-203 VL/VH - long (anti-GPRC5D CAR: GPRC5D-203 VL/VH scFv, long spacer, CD28 transmembrane domain, 4-1BB and CD3zeta signaling domains) (other)
chain: SSELTQDPAVSVALGQTVRITCQGDSLRSYYASWYQQKPGQAPVLVIYGKNNRPSGIPDRFSGSSSGNTASLTITGAQAEDEADYYCNSRDSSGNPPVVFGGGTKLTVLGSRGGGGSGGGGSGGGGSLEMAQVQLVESGGGLVHPGGSLRLSCAASGFTFRSHSMNWVRQAPGKGLEWVSSISSDSTYTYYADSVKGRFTISRDNAKNSLYLQMNSLRAEDTAVYYCARSGGQWKYYDYWGQGTLVTVSSESKYGPPCPPCPAPPVAGPSVFLFPPKPKDTLMISRTPEVTCVVVDVSQEDPEVQFNWYVDGVEVHNAKTKPREEQFQSTYRVVSVLTVLHQDWLNGKEYKCKVSNKGLPSSIEKTISKAKGQPREPQVYTLPPSQEEMTKNQVSLTCLVKGFYPSDIAVEWESNGQPENNYKTTPPVLDSDGSFFLYSRLTVDKSRWQEGNVFSCSVMHEALHNHYTQKSLSLSLGKMFWVLVVVGGVLACYSLLVTVAFIIFWVKRGRKKLLYIFKQPFMRPVQTTQEEDGCSCRFPEEEEGGCELRVKFSRSADAPAYQQGQNQLYNELNLGRREEYDVLDKRRGRDPEMGGKPRRKNPQEGLYNELQKDKMAEAYSEIGMKGERRRGKGHDGLYQGLSTATKDTYDALHMQALPPR
notes: Chimeric antigen receptor on the surface of Jurkat Nur77-RFP reporter cells or primary T cells; signal peptide left out; In the reporter constructs a T2A-GFP follows the CAR, so T2A residues may remain at the C-terminus
B1: no binding.
